Measurements reported in the Human Domainome abundance scans (Beltran et al. 2025).
± gives the uncertainty stated by the source.

assay: abundance fitness (aPCA) (normalised: wild type 0, dead -1); higher = more abundant; growth selection in yeast, the domain comes from the species named; conditions: Homo sapiens

Substance	abundance fitness
Lipoamide acyltransferase component of branched-chain alpha-keto acid dehydrogenase complex, mitochondrial R199M, P11182	-0.088 ± 0.088
Lipoamide acyltransferase component of branched-chain alpha-keto acid dehydrogenase complex, mitochondrial L209G, P11182	-0.081 ± 0.034
Lipoamide acyltransferase component of branched-chain alpha-keto acid dehydrogenase complex, mitochondrial N207D, P11182	-0.009 ± 0.049
Lipoamide acyltransferase component of branched-chain alpha-keto acid dehydrogenase complex, mitochondrial K196G, P11182	-0.159 ± 0.036
Lipoamide acyltransferase component of branched-chain alpha-keto acid dehydrogenase complex, mitochondrial E190L, P11182	-0.186 ± 0.042
Lipoamide acyltransferase component of branched-chain alpha-keto acid dehydrogenase complex, mitochondrial L180Q, P11182	-0.403 ± 0.12
Lipoamide acyltransferase component of branched-chain alpha-keto acid dehydrogenase complex, mitochondrial A176K, P11182	-0.312 ± 0.065
Lipoamide acyltransferase component of branched-chain alpha-keto acid dehydrogenase complex, mitochondrial D204P, P11182	-0.455 ± 0.06
Lipoamide acyltransferase component of branched-chain alpha-keto acid dehydrogenase complex, mitochondrial K202V, P11182	-0.105 ± 0.044
Lipoamide acyltransferase component of branched-chain alpha-keto acid dehydrogenase complex, mitochondrial E190A, P11182	-0.093 ± 0.047
Lipoamide acyltransferase component of branched-chain alpha-keto acid dehydrogenase complex, mitochondrial A176G, P11182	-0.074 ± 0.038
Lipoamide acyltransferase component of branched-chain alpha-keto acid dehydrogenase complex, mitochondrial I200N, P11182	-0.711 ± 0.28
Lipoamide acyltransferase component of branched-chain alpha-keto acid dehydrogenase complex, mitochondrial A173V, P11182	-0.059 ± 0.054
Lipoamide acyltransferase component of branched-chain alpha-keto acid dehydrogenase complex, mitochondrial L201D, P11182	-0.374 ± 0.14
Lipoamide acyltransferase component of branched-chain alpha-keto acid dehydrogenase complex, mitochondrial A176C, P11182	-0.173 ± 0.051
Lipoamide acyltransferase component of branched-chain alpha-keto acid dehydrogenase complex, mitochondrial R178K, P11182	0.051 ± 0.058
Lipoamide acyltransferase component of branched-chain alpha-keto acid dehydrogenase complex, mitochondrial V192C, P11182	-0.017 ± 0.055
Lipoamide acyltransferase component of branched-chain alpha-keto acid dehydrogenase complex, mitochondrial I200E, P11182	-0.558 ± 0.072
Lipoamide acyltransferase component of branched-chain alpha-keto acid dehydrogenase complex, mitochondrial K211H, P11182	-0.041 ± 0.052
Lipoamide acyltransferase component of branched-chain alpha-keto acid dehydrogenase complex, mitochondrial Q212F, P11182	-0.392 ± 0.11
Lipoamide acyltransferase component of branched-chain alpha-keto acid dehydrogenase complex, mitochondrial L209Y, P11182	-0.232 ± 0.087
Lipoamide acyltransferase component of branched-chain alpha-keto acid dehydrogenase complex, mitochondrial L201F, P11182	-0.319 ± 0.09
Lipoamide acyltransferase component of branched-chain alpha-keto acid dehydrogenase complex, mitochondrial V177P, P11182	-0.64 ± 0.08
Lipoamide acyltransferase component of branched-chain alpha-keto acid dehydrogenase complex, mitochondrial E190F, P11182	-0.448 ± 0.076
Lipoamide acyltransferase component of branched-chain alpha-keto acid dehydrogenase complex, mitochondrial L172A, P11182	-0.327 ± 0.053

Substance	abundance fitness
Lipoamide acyltransferase component of branched-chain alpha-keto acid dehydrogenase complex, mitochondrial V177W, P11182	-0.975 ± 0.14
Lipoamide acyltransferase component of branched-chain alpha-keto acid dehydrogenase complex, mitochondrial L201A, P11182	-0.315 ± 0.041
Lipoamide acyltransferase component of branched-chain alpha-keto acid dehydrogenase complex, mitochondrial I200L, P11182	-0.334 ± 0.043
Lipoamide acyltransferase component of branched-chain alpha-keto acid dehydrogenase complex, mitochondrial N184L, P11182	-0.325 ± 0.11
Lipoamide acyltransferase component of branched-chain alpha-keto acid dehydrogenase complex, mitochondrial K187E, P11182	-0.133 ± 0.046
Lipoamide acyltransferase component of branched-chain alpha-keto acid dehydrogenase complex, mitochondrial V177M, P11182	-0.329 ± 0.078
Lipoamide acyltransferase component of branched-chain alpha-keto acid dehydrogenase complex, mitochondrial I186C, P11182	-0.239 ± 0.074
Lipoamide acyltransferase component of branched-chain alpha-keto acid dehydrogenase complex, mitochondrial V177A, P11182	0.038 ± 0.04
Lipoamide acyltransferase component of branched-chain alpha-keto acid dehydrogenase complex, mitochondrial S189L, P11182	-0.45 ± 0.046
Lipoamide acyltransferase component of branched-chain alpha-keto acid dehydrogenase complex, mitochondrial L209R, P11182	0.006 ± 0.036
Lipoamide acyltransferase component of branched-chain alpha-keto acid dehydrogenase complex, mitochondrial Q212V, P11182	-0.075 ± 0.038
Lipoamide acyltransferase component of branched-chain alpha-keto acid dehydrogenase complex, mitochondrial K196M, P11182	-0.142 ± 0.053
Lipoamide acyltransferase component of branched-chain alpha-keto acid dehydrogenase complex, mitochondrial Y208C, P11182	0.037 ± 0.092
Lipoamide acyltransferase component of branched-chain alpha-keto acid dehydrogenase complex, mitochondrial L172F, P11182	-0.195 ± 0.085
Lipoamide acyltransferase component of branched-chain alpha-keto acid dehydrogenase complex, mitochondrial M182T, P11182	-0.173 ± 0.075
Lipoamide acyltransferase component of branched-chain alpha-keto acid dehydrogenase complex, mitochondrial I186P, P11182	-0.918 ± 0.11
Lipoamide acyltransferase component of branched-chain alpha-keto acid dehydrogenase complex, mitochondrial V191E, P11182	-0.562 ± 0.043
Lipoamide acyltransferase component of branched-chain alpha-keto acid dehydrogenase complex, mitochondrial N184G, P11182	-0.294 ± 0.093
Lipoamide acyltransferase component of branched-chain alpha-keto acid dehydrogenase complex, mitochondrial K187H, P11182	-0.144 ± 0.057
Lipoamide acyltransferase component of branched-chain alpha-keto acid dehydrogenase complex, mitochondrial T174A, P11182	-0.347 ± 0.066
Lipoamide acyltransferase component of branched-chain alpha-keto acid dehydrogenase complex, mitochondrial T213Y, P11182	-0.386 ± 0.15
Lipoamide acyltransferase component of branched-chain alpha-keto acid dehydrogenase complex, mitochondrial Q212H, P11182	0.011 ± 0.065
Nanos homolog 2 V97I, P60321	0.008 ± 0.12
Lipoamide acyltransferase component of branched-chain alpha-keto acid dehydrogenase complex, mitochondrial P175G, P11182	-0.268 ± 0.035
